According to publication PMC10830565 (2024):

Experiments:
[1] = target: T1, GST-BCL7A-YFP (Arabidopsis thaliana, UniProt F4JL58); assay: GST pull-down
T1 chain: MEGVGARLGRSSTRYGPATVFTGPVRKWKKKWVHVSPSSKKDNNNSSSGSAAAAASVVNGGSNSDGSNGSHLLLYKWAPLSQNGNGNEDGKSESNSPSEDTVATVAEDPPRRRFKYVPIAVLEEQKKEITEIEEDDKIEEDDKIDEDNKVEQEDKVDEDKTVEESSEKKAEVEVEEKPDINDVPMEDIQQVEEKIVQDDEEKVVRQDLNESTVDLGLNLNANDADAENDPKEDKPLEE

[2] = target: T2, GST-BCL7B-CFP (Arabidopsis thaliana, UniProt Q9FLP2); assay: GST pull-down
T2 chain: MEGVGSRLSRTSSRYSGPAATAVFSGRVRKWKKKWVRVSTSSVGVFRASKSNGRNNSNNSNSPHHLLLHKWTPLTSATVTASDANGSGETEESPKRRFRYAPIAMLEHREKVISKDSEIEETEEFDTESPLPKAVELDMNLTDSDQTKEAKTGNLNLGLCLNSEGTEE

binding result [1]: binds | binding result [2]: binds
B1: MBP-BRM (422-952)-HIS (protein)
chain: MQQPRQLNTPTPNLVAPSDTGPLSNSSLQSGQGTQQAQQRSGFTKQQLHVLKAQILAFRRLKKGEGSLPPELLQAISPPPLELQTQRQISPAIGKVQDRSSDKTGEDQARSLECGKESQAAASSNGPIFSKEEDNVGDTEVALTTGHSQLFQNLGKEATSTDVATKEEQQTDVFPVKSDQGADSSTQKNPRSDSTADKGKAVASDGSQSKVPPQANSPQPPKDTASARKYYGPLFDFPFFTRKLDSYGSATANANNNLTLAYDIKDLICEEGAEFLSKKRTDSLKKINGLLAKNLERKRIRPDLVLRLQIEEKKLRLSDLQSRVREEVDRQQQEIMSMPDRPYRKFVRLCERQRLEMNRQVLANQKAVREKQLKTIFQWRKKLLEAHWAIRDARTARNRGVAKYHEKMLREFSKRKDDGRNKRMEALKNNDVERYREMLLEQQTNMPGDAAERYAVLSSFLTQTEDYLHKLGGKITATKNQQEVEEAANAAAVAARLQGLSEEEVRAAATCAREEVVIRNRFTEMNAPKEN
